According to patent US11834499:

How the values were obtained:
[1] = biological target: human Claudin-18.2 (CLDN18.2) (human); assay: flow cytometry, 2ug/reaction, trypsin to detach cells; HUPT4 cells; anti-his 2o only 12,730.43; same construct on ARK2 cells 37,777.38 (2o only 35,124.48)
CD16A [2] = biological target: CD16A (UniProt P08637); assay: flow cytometry; Jurkat Lucia CD16A; only anti-his 2o AF647 652513 7,290.88
CD16A [3] = biological target: CD16A (UniProt P08637); assay: flow cytometry, 2ug/reaction; Jurkat-Lucia-NFAT-CD16 cells; anti-his 2o only 18,863.83
[4] = biological target: human Claudin-18.2 (CLDN18.2) (human); assay: flow cytometry; HUPT4 (CLDN18.2+); only anti-his 2o AF647 652513 12,046.33; same construct on ARK2 (CLDN18.2-) 39,787.16 (2o only 36,416.11)
CD3 on Jurkat cells = CD3 on Jurkat cells (UniProt P07766); assay: flow cytometry, Jurkat cells, anti-His secondary; A01 Jurkat-2o alone 1,501.76
CD3 on Jurkat cells, sequence (P07766 23-207 limits assumed): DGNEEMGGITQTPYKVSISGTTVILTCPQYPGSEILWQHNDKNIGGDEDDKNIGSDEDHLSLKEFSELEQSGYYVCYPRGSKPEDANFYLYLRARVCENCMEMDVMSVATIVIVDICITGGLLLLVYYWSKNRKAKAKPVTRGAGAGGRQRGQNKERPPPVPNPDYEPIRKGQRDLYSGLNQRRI

CD16A, sequence (P08637 17-254 limits assumed, form in doubt): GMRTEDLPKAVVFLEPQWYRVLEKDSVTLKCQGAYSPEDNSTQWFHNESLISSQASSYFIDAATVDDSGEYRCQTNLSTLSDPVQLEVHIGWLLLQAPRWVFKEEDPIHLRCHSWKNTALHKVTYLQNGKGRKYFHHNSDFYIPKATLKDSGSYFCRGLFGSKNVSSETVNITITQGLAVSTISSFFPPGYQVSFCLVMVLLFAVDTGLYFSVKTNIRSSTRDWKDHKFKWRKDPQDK

Row | Substance | flow cytometry signal [1] | flow cytometry signal (CD16A [2]) | flow cytometry signal (CD16A [3]) | flow cytometry signal [4] | FL4-H value printed beside the legend (CD3 on Jurkat cells)
1 | AFM13 (CD16A-CD30 BiTE) his tagged (bispecific antibody) | 15700 | 23500 | 76500 | 8940 | –
2 | Blincyto-His tag (bispecific antibody) | – | – | – | – | 16300
